Among the data in paper PMC2906495, “A kinesin motor in a force-producing conformation” (BMC Structural Biology, 2010) are binding result and K (m,MTs) of the microtubule-stimulated steady-state ATPase (0.5 μM motor, 1 mM MgATP, 0-2.5 μM microtubules) values, retold here.

Data set [1] deals with the molecule itself. The experiment in a line: crystal structure; NcdT436S at 4.5 mg/ml incubated with 4 mM MgCl2 and 4 mM ATP, hanging drops at room temperature, 11.5% PEG 8K, 25 mM sodium-phosphate pH 6.26, 0.5 M NaCl; molecular replacement with PDB 1N6M; two chains (A, B) joined by the coiled-coil stalk.
The target in data set [2] is microtubules (polymerized tubulin).

B1: NcdT436S, nonfusion protein for crystallization (MGSM-H293-K700) (domain or fragment, Drosophila)
chain: MGSMHAALSTEVVHLRQRTEELLRCNEQQAAELETCKEQLFQSNMERKELHNTVMDLRGNIRVFCRIRPPLESEENRMCCTWTYHDESTVELQSIDAQAKSKMGQQIFSFDQVFHPLSSQSDIFEMVSPLIQSALDGYNICIFAYGQSGSGKTYTMDGVPESVGVIPRTVDLLFDSIRGYRNLGWEYEIKATFLEIYNEVLYDLLSNEQKDMEIRMAKNNKNDIYVSNITEETVLDPNHLRHLMHTAKMNRATASTAGNERSSRSHAVTKLELIGRHAEKQEISVGSINLVDLAGSESPKTSTRMTETKNINRSLSELTNVILALLQKQDHIPYRNSKLTHLLMPSLGGNSKTLMFINVSPFQDCFQESVKSLRFAASVNSCKMTKAKRNRYLNNSVANSSTQSNNSGSFDK
notes: N-terminal leader of the construct MGSM-H293-K700; kinesin-14 Ncd of Drosophila, residues H293-K700 (part of the coiled-coil stalk, neck, motor domain and C-terminus), with T436S in the P-loop; The printed mass of 93,692 Da fits two chains (dimer); In the crystal, chain A is visible from M292 to K671 and chain B from G290 to K674; also called kinesin-14 Ncd T436S; source: E. coli BL21(DE3)pLysS …
Consider B1, for which the binding result in data set [1] was “binds”.

B2: wild-type GST/Ncd (GST/MC1) (domain or fragment)
chain: KTKYEKQTEDMGELESMPQQLEETQNKLIETESSLKNTQSDNECLQRQVKQHTAKIETITSTLGRTKEELSELQAIHEKVKTEHAALSTEVVHLRQRTEELLRCNEQQAAELETCKEQLFQSNMERKELHNTVMDLRGNIRVFCRIRPPLESEENRMCCTWTYHDESTVELQSIDAQAKSKMGQQIFSFDQVFHPLSSQSDIFEMVSPLIQSALDGYNICIFAYGQTGSGKTYTMDGVPESVGVIPRTVDLLFDSIRGYRNLGWEYEIKATFLEIYNEVLYDLLSNEQKDMEIRMAKNNKNDIYVSNITEETVLDPNHLRHLMHTAKMNRATASTAGNERSSRSHAVTKLELIGRHAEKQEISVGSINLVDLAGSESPKTSTRMTETKNINRSLSELTNVILALLQKQDHIPYRNSKLTHLLMPSLGGNSKTLMFINVSPFQDCFQESVKSLRFAASVNSCKMTKAKRNRYLNNSVANSSTQSNNSGSFDK
B2 displayed a K (m,MTs) of the microtubule-stimulated steady-state ATPase (0.5 μM motor, 1 mM MgATP, 0-2.5 μM microtubules) in data set [2] of 1.6 µM.

B3: GST/NcdT436S (GST-…-K210-K700) (domain or fragment)
chain: SDLVPRGSPVKTKYEKQTEDMGELESMPQQLEETQNKLIETESSLKNTQSDNECLQRQVKQHTAKIETITSTLGRTKEELSELQAIHEKVKTEHAALSTEVVHLRQRTEELLRCNEQQAAELETCKEQLFQSNMERKELHNTVMDLRGNIRVFCRIRPPLESEENRMCCTWTYHDESTVELQSIDAQAKSKMGQQIFSFDQVFHPLSSQSDIFEMVSPLIQSALDGYNICIFAYGQSGSGKTYTMDGVPESVGVIPRTVDLLFDSIRGYRNLGWEYEIKATFLEIYNEVLYDLLSNEQKDMEIRMAKNNKNDIYVSNITEETVLDPNHLRHLMHTAKMNRATASTAGNERSSRSHAVTKLELIGRHAEKQEISVGSINLVDLAGSESPKTSTRMTETKNINRSLSELTNVILALLQKQDHIPYRNSKLTHLLMPSLGGNSKTLMFINVSPFQDCFQESVKSLRFAASVNSCKMTKAKRNRYLNNSVANSSTQSNNSGSFDK
B3 gave a K (m,MTs) of the microtubule-stimulated steady-state ATPase (0.5 μM motor, 1 mM MgATP, 0-2.5 μM microtubules) in data set [2] of 1.3 µM.
